Assay results from patent publication US20040086528A1 (PROGENICS PHARMACEUTICALS, published 2004).

T1: CCR5 K26A, HA-tagged (human, UniProt P51681 1-352)
T1 sequence: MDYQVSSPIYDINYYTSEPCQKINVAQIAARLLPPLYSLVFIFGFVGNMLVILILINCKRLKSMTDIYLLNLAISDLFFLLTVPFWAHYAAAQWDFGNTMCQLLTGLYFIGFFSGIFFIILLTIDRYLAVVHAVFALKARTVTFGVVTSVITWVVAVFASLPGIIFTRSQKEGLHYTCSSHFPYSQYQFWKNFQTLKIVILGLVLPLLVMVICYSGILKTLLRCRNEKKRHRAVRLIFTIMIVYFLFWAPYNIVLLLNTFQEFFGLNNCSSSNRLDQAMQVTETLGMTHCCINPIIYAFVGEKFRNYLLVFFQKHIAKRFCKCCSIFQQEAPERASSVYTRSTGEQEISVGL

T2: CCR5 K171A/E172A, HA-tagged (human, UniProt P51681 1-352)
T2 sequence: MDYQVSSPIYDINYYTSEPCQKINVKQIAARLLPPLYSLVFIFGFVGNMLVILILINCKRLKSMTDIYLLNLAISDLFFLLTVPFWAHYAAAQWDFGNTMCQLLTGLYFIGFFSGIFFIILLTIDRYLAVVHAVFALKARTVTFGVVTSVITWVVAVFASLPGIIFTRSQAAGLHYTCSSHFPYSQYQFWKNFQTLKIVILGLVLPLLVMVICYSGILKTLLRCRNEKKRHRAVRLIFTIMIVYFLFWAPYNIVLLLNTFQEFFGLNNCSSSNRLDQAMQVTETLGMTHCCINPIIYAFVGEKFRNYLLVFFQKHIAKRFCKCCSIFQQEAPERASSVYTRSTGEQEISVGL

T3: CCR5 H175A, HA-tagged (human, UniProt P51681 1-352)
T3 sequence: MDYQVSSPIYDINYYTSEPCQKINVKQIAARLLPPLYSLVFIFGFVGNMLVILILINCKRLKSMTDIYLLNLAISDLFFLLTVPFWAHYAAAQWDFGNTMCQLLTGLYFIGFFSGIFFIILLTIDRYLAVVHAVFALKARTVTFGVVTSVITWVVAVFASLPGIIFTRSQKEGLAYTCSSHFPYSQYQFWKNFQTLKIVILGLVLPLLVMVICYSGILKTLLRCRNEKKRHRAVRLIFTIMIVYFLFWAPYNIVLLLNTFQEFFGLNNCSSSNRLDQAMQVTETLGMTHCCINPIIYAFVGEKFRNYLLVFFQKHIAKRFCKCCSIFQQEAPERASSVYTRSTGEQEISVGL

T4: CCR5 H181A, HA-tagged (human, UniProt P51681 1-352)
T4 sequence: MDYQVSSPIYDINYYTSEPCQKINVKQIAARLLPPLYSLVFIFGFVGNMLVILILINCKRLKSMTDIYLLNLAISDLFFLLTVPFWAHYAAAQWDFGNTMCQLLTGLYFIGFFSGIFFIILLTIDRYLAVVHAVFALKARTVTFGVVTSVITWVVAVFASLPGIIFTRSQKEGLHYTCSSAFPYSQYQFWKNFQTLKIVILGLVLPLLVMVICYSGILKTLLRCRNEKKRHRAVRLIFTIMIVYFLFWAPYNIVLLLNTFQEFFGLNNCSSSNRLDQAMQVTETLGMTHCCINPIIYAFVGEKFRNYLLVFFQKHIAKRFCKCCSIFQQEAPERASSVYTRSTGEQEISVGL

B1: macrophage inflammatory protein (MIP)-1β, recombinant human (ligand, UniProt P13236 24-92, looked up)
chain: APMGSDPPTACCFSYTARKLPRNFVVDYYETSSLCSQPAVVFQTKRSKQVCADPSESWVQEYVYDLELN
B2: RANTES, recombinant human (ligand)
chain: SPYSSDTTPCCFAYIARPLPRAHIKEYFYTSGKCSNPAVVFVTRKNRQVCANPEKKWVREYINSLEMS

What was measured:
Assay in all cases: cell-based or functional assay
CCR5 K26A, HA-tagged = target: T1, CCR5 K26A, HA-tagged
[1] = target: T2, CCR5 K171A/E172A, HA-tagged
CCR5 H175A, HA-tagged = target: T3, CCR5 H175A, HA-tagged
CCR5 H181A, HA-tagged = target: T4, CCR5 H181A, HA-tagged

Binder | relative % inhibition of NLluc/JR-FL entry into U87MG-CD4 cells by 2 µg/ml chemokine (wild-type = 100) (CCR5 K26A, HA-tagged) [%] | relative % inhibition of NLluc/JR-FL entry into U87MG-CD4 cells by 2 µg/ml chemokine (wild-type = 100) [1] [%] | relative % inhibition of NLluc/JR-FL entry into U87MG-CD4 cells by 2 µg/ml chemokine (wild-type = 100) (CCR5 H175A, HA-tagged) [%] | relative % inhibition of NLluc/JR-FL entry into U87MG-CD4 cells by 2 µg/ml chemokine (wild-type = 100) (CCR5 H181A, HA-tagged) [%]
B1 | 97 | 97 | 100 | 53
B2 | 100 | 107 | 95 | 39
